Key:
[1] = biological target: Boxer virus (BV, GI.8) P domain, wild type, as P particle (Boxer virus (human norovirus GI.8)); assay: SEC; gel filtration on Superdex 200 followed by SDS-PAGE; P particles form a peak at 830 kDa
[2] = biological target: Boxer virus (BV, GI.8) VP1 P domain, Q227-L526 (P dimer) (Boxer virus (human norovirus GI.8)); assay: crystal structure; P protein at 10 mg/mL (native) or 14 mg/mL with Le^b or Le^y tetrasaccharide, hanging drop, 0.1 mol/L LiCl, 18% PEG 3350, 10% MPD, 16°C; space group P6_(1), two protomers in the asymmetric unit

| Substance | efficiency of P particle formation [1] [%] | stoichiometry N [2] |
| --- | --- | --- |
| Boxer virus (BV, GI.8) P domain, wild type, as P particle (domain or fragment) | 80 | – |
| Boxer virus (BV, GI.8) VP1 P domain, Q227-L526 (P dimer) (domain or fragment) | – | 2 |

Source: paper PMC4312760
